Data reported in the supplement of paper PMC7125110.
± gives the standard error. For some of these results: Variants at the floor of the assay were thinned out.

B1: glmS ribozyme (parent)
chain: AUAAAAGCGCCAGAACUACAGAAAUGUAGUUGACGAGGAGGAGGUUUAUCGAAUUUUCGGCGGAUGCCUCCAAA

What was measured:
Details in all cases: with glucosamine-6-phosphate
glucosamine-6-phosphate [1] = variants of: B1; assay: kcat; higher = faster cleavage; RNA array
How it was run: (§1)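 The measurements used barcoded ribozyme variants on sequenced MiSeq chips, transcribed in situ by E. coli RNA polymerase and tracked at 37 °C with a hybridised Cy3 probe. Glucosamine-6-phosphate, 40 μM to 10 mM in HEPES/KCl/Mg(OAc)2 buffer, was flowed in while tiles were imaged over ~14 h. Baseline-normalised signals, also normalised to non-cleaving reference variants, gave per-tile medians that were fit to one- or two-exponential decays for kobs. kcat and KM resulted from weighted Michaelis–Menten fits across concentrations.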

glucosamine-6-phosphate [2] = variants of: B1; assay: KM; higher = weaker cofactor use; RNA array
How it was run: as §1

glucosamine-6-phosphate [3] = variants of: B1; assay: self-cleavage kobs at 160 uM GlcN6P; higher = faster cleavage; RNA array
How it was run: as §1

glucosamine-6-phosphate [4] = variants of: B1; assay: self-cleavage kobs at 640 uM GlcN6P; higher = faster cleavage; RNA array
How it was run: as §1

glucosamine-6-phosphate [5] = variants of: B1; assay: self-cleavage kobs at 2500 uM GlcN6P; higher = faster cleavage; RNA array
How it was run: as §1

glucosamine-6-phosphate [6] = variants of: B1; assay: self-cleavage kobs at 10000 uM GlcN6P; higher = faster cleavage; RNA array
How it was run: as §1

glucosamine-6-phosphate [7] = variants of: B1; assay: self-cleavage kobs at 40 uM GlcN6P; higher = faster cleavage; RNA array
How it was run: as §1

Variant | kcat (glucosamine-6-phosphate [1]) [s⁻¹] | KM (glucosamine-6-phosphate [2]) [µM] | self-cleavage kobs at 160 uM GlcN6P (glucosamine-6-phosphate [3]) [s⁻¹] | self-cleavage kobs at 640 uM GlcN6P (glucosamine-6-phosphate [4]) [s⁻¹] | self-cleavage kobs at 2500 uM GlcN6P (glucosamine-6-phosphate [5]) [s⁻¹] | self-cleavage kobs at 10000 uM GlcN6P (glucosamine-6-phosphate [6]) [s⁻¹] | self-cleavage kobs at 40 uM GlcN6P (glucosamine-6-phosphate [7]) [s⁻¹]
G29U U46C | 0.000262 ± 1.5e-05 | 1090 ± 140 | 3.52e-05 ± 1.6e-05 | 9.83e-05 ± 1.4e-05 | 0.000156 ± 4.3e-05 | 0.000242 ± 2.9e-05 | –
G32U A36C | < 1e-05 | – | – | – | < 1e-05 | < 1e-05 | –
A39C A53C | 0.00121 ± 6.7e-05 | 2680 ± 240 | 7.25e-05 ± 1.1e-05 | 0.000221 ± 2.6e-05 | 0.000595 ± 6.8e-05 | 0.000957 ± 0.0001 | 2.09e-05 ± 8.9e-06
C16U G32C A52G | 4.34e-05 ± 1.5e-06 | 3600 ± 420 | – | – | – | 3.19e-05 ± 1.3e-05 | –
C16U G32U U69A | 9.39e-05 ± 2e-05 | – | – | 9.19e-05 ± 1.8e-05 | – | 0.000104 ± 1.9e-05 | –
C58G G63A | < 1e-05 | – | – | – | – | – | < 1e-05
U30C G63U | 1.08e-05 ± 3e-06 | – | – | – | – | < 1e-05 | –
G44C C68U | 8.31e-05 ± 1.5e-05 | 5560 ± 1800 | < 1e-05 | – | 2.65e-05 ± 1.2e-05 | – | < 1e-05
A53G | 0.0676 ± 0.0095 | 2010 ± 330 | 0.00441 ± 0.0003 | 0.015 ± 0.00053 | 0.0341 ± 0.0017 | 0.0639 ± 0.0029 | 0.00137 ± 2.6e-05
C61U C71U | 2.55e-05 ± 4.8e-07 | 2880 ± 200 | < 1e-05 | < 1e-05 | – | – | < 1e-05
A14U A39U A52G | 0.00264 ± 0.00045 | – | – | – | 5.72e-05 ± 1.2e-05 | 0.000214 ± 3.7e-05 | –
A48G C61A | 1.07e-05 ± 3.1e-06 | – | – | – | – | – | –
G43U A73U | 4.34e-05 ± 8.8e-06 | – | – | – | 4.73e-05 ± 2.1e-05 | 3.88e-05 ± 1e-05 | –
A39C U45A A53U C70U | 4.71e-05 ± 2.2e-06 | 835 ± 200 | – | – | – | 4.34e-05 ± 1.8e-05 | –
U30C U31G | 0.00836 ± 0.0018 | 2370 ± 690 | 0.000404 ± 0.0001 | 0.00249 ± 0.00044 | 0.00353 ± 0.0008 | 0.00701 ± 0.00093 | 0.000147 ± 1.9e-05
A15U G40U | 0.000328 ± 7.5e-05 | – | 2.65e-05 ± 1.3e-05 | 0.000117 ± 2.2e-05 | 0.000447 ± 6.9e-05 | 0.000273 ± 2.8e-05 | –
U45G G66U | 0.0036 ± 0.00029 | 4540 ± 530 | 0.00012 ± 2.8e-05 | 0.00042 ± 7.6e-05 | 0.0014 ± 0.00027 | 0.00245 ± 0.00032 | 3.62e-05 ± 1.2e-05
A52U C70G | 7.01e-05 ± 1.1e-05 | – | – | 5.38e-05 ± 1.1e-05 | 8.15e-05 ± 8.6e-06 | 5.93e-05 ± 7.6e-06 | –

Variant | kcat (glucosamine-6-phosphate [1]) [s⁻¹] | KM (glucosamine-6-phosphate [2]) [µM] | self-cleavage kobs at 160 uM GlcN6P (glucosamine-6-phosphate [3]) [s⁻¹] | self-cleavage kobs at 640 uM GlcN6P (glucosamine-6-phosphate [4]) [s⁻¹] | self-cleavage kobs at 2500 uM GlcN6P (glucosamine-6-phosphate [5]) [s⁻¹] | self-cleavage kobs at 10000 uM GlcN6P (glucosamine-6-phosphate [6]) [s⁻¹] | self-cleavage kobs at 40 uM GlcN6P (glucosamine-6-phosphate [7]) [s⁻¹]
A12C C50A C68G | 2.56e-05 ± 8.7e-06 | – | – | – | – | – | –
A33U U46G | 1.23e-05 ± 2.7e-06 | – | < 1e-05 | – | – | – | < 1e-05
G37U U47G | < 1e-05 | – | – | < 1e-05 | – | – | < 1e-05
A39G C67A | 0.00703 ± 0.003 | – | – | 0.00288 ± 0.00088 | – | 0.00689 ± 0.0015 | 0.000425 ± 7.2e-05
G35A C50G U69A | 0.000277 ± 5.3e-05 | – | 0.000465 ± 0.00015 | 0.000501 ± 0.00021 | 0.000206 ± 7.8e-05 | 0.000278 ± 5.3e-05 | 0.000149 ± 3.4e-05
C10U C71G | 1.65e-05 ± 5.1e-06 | – | – | – | – | – | < 1e-05
A6G A12U | 0.000134 ± 1.7e-05 | – | – | 7.58e-05 ± 1.1e-05 | 0.000155 ± 2.1e-05 | 0.000119 ± 1e-05 | –
C68U C71U | 0.000142 ± 7.2e-06 | 1240 ± 180 | – | 4.62e-05 ± 4.3e-06 | 0.000103 ± 7.4e-06 | 0.000123 ± 6.6e-06 | –
A15C C70A C71A | 3.7e-05 ± 3.6e-06 | 98.6 ± 41 | – | – | – | – | –
G66A C70U | 0.0162 ± 0.0065 | – | 0.00153 ± 0.00021 | 0.00577 ± 0.00081 | 0.00738 ± 0.0024 | 0.0185 ± 0.0034 | 0.00075 ± 0.0001
A15G C67A | 0.00627 ± 0.0024 | – | 0.000961 ± 0.00011 | 0.00406 ± 0.0007 | 0.00376 ± 0.00071 | 0.00896 ± 0.0018 | 0.000534 ± 0.00011
G51U C58G | 1.13e-05 ± 4.5e-06 | – | – | < 1e-05 | – | < 1e-05 | < 1e-05
U47A C71A | 0.00195 ± 0.00046 | 1020 ± 320 | 0.000253 ± 6.8e-05 | 0.00117 ± 0.00028 | 0.00138 ± 0.00038 | 0.00153 ± 0.00055 | 6.97e-05 ± 1.4e-05
U31C C70A | 6.32e-05 ± 4.7e-06 | 135 ± 56 | 2.96e-05 ± 1.2e-05 | 5.83e-05 ± 9.7e-06 | 5.7e-05 ± 1.6e-05 | 5.89e-05 ± 1.2e-05 | –
A12U C61U | 2.71e-05 ± 7.4e-06 | – | – | – | 3.1e-05 ± 1.2e-05 | – | –
C68G U69C | 1.67e-05 ± 1.9e-06 | – | – | – | – | < 1e-05 | –
G13U U31C | 0.000427 ± 1.8e-05 | 1040 ± 110 | 4.8e-05 ± 2.1e-05 | 0.00017 ± 2.8e-05 | 0.000297 ± 3.8e-05 | 0.000387 ± 5.1e-05 | –
